From the nanobody polyreactivity screen of Harvey et al. (2022)

Experiment: yeast display, Sf9 membrane polyspecificity reagent, FACS + sequencing; frameworks hold sequencing errors
Outline: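 Nanobodies came from a synthetic yeast display library in Saccharomyces cerevisiae BJ5465, induced with galactose for 36–48 hours and stained for 1 hour at 4 °C with 10% biotinylated, detergent-solubilized Sf9 membrane reagent. Cells were enriched on streptavidin microbeads and then FACS-sorted, with low and high (top ~1%) gates set on anti-HA fluorescence for expression and streptavidin fluorescence for reagent binding. Each polyreactivity label reflects the gate a clone came from. Genes were amplified by colony PCR, sequenced by MiSeq 2 × 250 and filtered by CDR length.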

Sequence	polyreactivity (PSR sort gate)
QVQLVESGGGLVQAGGSLRLSCAASGSIFYVNDMGWYRQAPGKERELVAAISSTGSTKYADSVKGRFTISRDNAKNTVYLQMNSLKPEDTAVYYCAKEPGHRFEFDYWGQGTQVTVSS	low polyreactivity
QVQLVESGGGLVQAGGSLRLSCAASGSIFYVYAMGWYRQAPGKERELVAAINTSSGDTYYADSVKGRFTISRDNAKNTVYLQMNSLKPEDTAVYYCNARTRSSYTIGSYLLSYDYWGQGTQVTVSS	high polyreactivity
QVQLVESGGGLVQAGGSLRLSCAASGSIFYVYAMGWYRQAPGKERELVAAITSSGTTNYADSVKGRFTISRDNAKNTVYLQMNSLKPEDTAVYYCAADAYSGAYFTYLGEIYDYWGQGTQVTVSS	low polyreactivity
QVQLVESGGGLVQAGGSLRLSCAASGSIFYVYAMGWYRQAPGKERELVATISTGGSTYYADSVKGRFTISRDNAKNTVYLQMNSLKPEDTAVYYCNAQFTPRYRGGYDSWGQCTQVTVSS	low polyreactivity
QVQLVESGGGLVQAGGSLRLSCAASGSIFYVYGMGWYRQAPGKERELVAAITRSGGIKYYADSVKGRFTISRDNAKNTVYLLMNSLKPEDTAVYYCAALSYRYTDKVVYWGQGTQVTVSS	low polyreactivity
QVQLVESGGGLVQAGGSLRLSCAASGSIFYVYVMGWYRQAPGKERELVAAIDTGGGDTYYADSVKGRFTISRDNAKNTVYLQMNSLKPEDTAVYYCAAELYDYGDLYYSEYDYWGQGTQVTVSS	low polyreactivity
QVQLVESGGGLVQAGGSLRLSCAASGSIFYVYVMGWYRQAPGKERELVAGISYRGGSTYYADSVKGRFTISRDNAKNTVYLQMNSLKPEDTAVYYCNAGVWTYWHIEMDYWGQGTQVTVSS	low polyreactivity
QVQLVESGGGLVQAGGSLRLSCAASGSIFYWNTMGWYRQAPGKERELVAAISYSGGSTYYADSVKGRFTISRDNAKNTVYLQMNSLKPEDTAVYYCAAKYYNRFYYWGQGTQVTVSS	high polyreactivity
QVQLVESGGGLVQAGGSLRLSCAASGSIFYWYAMGWYRPAPGKERELVAAITSSSGRTRYADSVKGRFTISRDNAKNTVYLQMNSLKPEDTAVYYCAAGRWGSYYTPRPYGYWGQGTQVTVSS	high polyreactivity
QVQLVESGGGLVQAGGSLRLSCAASGSIFYWYAMGWYRQAPGKEREFVAAISRSDGSTYYADSLKRRFTISRDNAKNTVYLEMNRLKPEDTAVYYCAAERYYFPRSYRYGYWGQGTQVTVSS	low polyreactivity
QVQLVESGGGLVQAGGSLRLSCAASGSIFYWYAMGWYRQAPGKERELVAGITGRGGSTYYADSVKGRFTISRDNAKNTVYLQMNSLKPEDTAVYYCAARYTRWRYNYKDYDYWGQGTQVTVSS	high polyreactivity
QVQLVESGGGLVQAGGSLRLSCAASGSIFYYNAKGWYRQAPGKERELVAGIRRSGDSTYYADSVKGRFTISRDNAKNTVYLQLNRLKPEDTAVYYCAADRVYEASQGYTYFDYDYWGQGTQVTVSS	low polyreactivity
QVQLVESGGGLVQAGGSLRLSCAASGSIFYYNAMGWYRQAPGKERELVAAISRSGGSTYYADSVKGRFTISRDNAKNTVYLQMNSLKPEDTAVYYCAARPNFTPYEYGYWGQGTQVTVSS	low polyreactivity
QVQLVESGGGLVQAGGSLRLSCAASGSIFYYNAMGWYRQAPGKERELVAAISWGDGITYYADSVKGRFTISRDNAKNTVYLQMNSLKPEDTAVYYCAVDYYYLAFEYWGQGTQVTVSS	high polyreactivity
QVQLVESGGGLVQAGGSLRLSCAASGSIFYYNAMGWYRQAPGKERELVAAITSGGSTHYADSVKGRFTISRDNAKNTVYLQMNSLKPEDTAVYYCAADVWYKYHRSAIIVEFDYWGQGTQVTVSS	low polyreactivity
QVQLVESGGGLVQAGGSLRLSCAASGSIFYYNGMGWYRHAPGKERELVASISRGGGTNYADSVKGRFTISRDNAKNTVYLQMNSLKPEDTAVYYCNARYPRSSPFGYWGLGTQVTVSS	high polyreactivity
QVQLVESGGGLVQAGGSLRLSCAASGSIFYYNTMAWYRQAPGKERELVAAIRQRGTSTYYADSVKGRFTISRDNAKNTVYLLMISLKPEDTAVYYCAAVTRGQSAYSYDYWGQGTKVTVSS	high polyreactivity
QVQLVESGGGLVQAGGSLRLSCAASGSIFYYNTMGWSRQSPGKERELVAAINTSGGSTYYADSVKGRFTISRDNATNTDYVQLNSLKPEDTAVYYCAVRYRYRFVAKGYWGQGTQVTVSS	high polyreactivity
QVQLVESGGGLVQAGGSLRLSCAASGSIFYYNTMGWYRQAPGKERELVAAITSTGRTNYADSVKGRFTISRDNAKNTVYLQMNSLKPEDSAVYYCAKRRFGDGDYWGQGTQVTVSS	low polyreactivity
QVQLVESGGGLVQAGGSLRLSCAASGSIFYYYAMGLYRQAPGKERELVAAITRRGGNTYYADSVKGRFTISRDNAKNTVYLQMNSLKPEDTAVYYCNAPGFAWYTTKYDYWGQGTQVTVSS	low polyreactivity
QVQLVESGGGLVQAGGSLRLSCAASGSIFYYYAMGWYRQAPGKERELVAAITYSGGSTHYADSVKGRFTISRDNAKNTVYLQMNSLKPDDTAVFYCAVYYRSHSGSRIYYWGQGTQVTVSS	high polyreactivity
QVQLVESGGGLVQAGGSLRLSCAASGSIFYYYAMGWYRQAPGKERELVAGITVSGGRTYYADSVKGRFTISRDNAKNTVYLQMNSLKPEDTAVYYCAADGRAKYDYWGQGTQVTVSS	low polyreactivity

Sequence	polyreactivity (PSR sort gate)
QVQLVESGGGLVQAGGSLRLSCAASGSIFYYYAMGWYRQAPGKVRELVASISSGGRTYYADSVKGRFTISRDNAENTLYLQLNSLKPEDSAVYYCAVEVWWWEGDYDYWGLGTQVTVSS	high polyreactivity
QVQLVESGGGLVQAGGSLRLSCAASGSIFYYYTMGWYRQAPGKERELVAAITWSGSTYYADSVKGRFTISRDNAKNTVYLQMNSLKPEDTAVYYCNADALIAAYKYFPYTYRFNYWGQGTQVTVSS	low polyreactivity
QVQLVESGGGLVQAGGSLRLSCAASGSIGVYAMGWYRQSPGKERELVAGISRSGSSTFFADSVKGRFTISRDNAKNTVYLQMNSLKPEDTAVYYCTAYTYNYRQGSEYYYWGQGTQVTVSS	high polyreactivity
QVQLVESGGGLVQAGGSLRLSCAASGSIGYMGWYRQAPGKERELVAFITSSGGGTYYADSVKGRFTISRDNAKNTVYLQMNSLKPEDTAVYYCATKSSAGYDYWGQGTQVTVSS	low polyreactivity
QVQLVESGGGLVQAGGSLRLSCAASGSIIAGYAMGWYRQAPGKERELVAAISQRGTSTYYADSVKGRFTISRDIAKNTVYLQMNSLKPEDTSVYYCAARVVSRMDYWGQGTQVTVSS	high polyreactivity
QVQLVESGGGLVQAGGSLRLSCAASGSIIDLNAMGWYRQAPGKERDLVAAISSGGGTYYADSVKGRFTISRDNAKNNVYLQMNSLKPEDTAVYYCAAIGYRVYRYYRGRTYDYWGQGTQVTVSS	high polyreactivity
QVQLVESGGGLVQAGGSLRLSCAASGSIIFGYGMGWYRQAPGKERELVATITTSGGTYYADSVKGRFTISRDNAKNSVYLQMNSLKPEDTAVYYCAATAAALDGNTIMYYWGQGTQVTVSS	low polyreactivity
QVQLVESGGGLVQAGGSLRLSCAASGSIIFLYAMGWYRQAPGKERELVASISTSGTTITYYADSVKGRFTISRDNAKNTVYLQMNSLKPEDTAVYYCAADTLYYPYDYWGQGTQVTVSS	low polyreactivity
QVQLVESGGGLVQAGGSLRLSCAASGSIIGDNAMGWYRPAPGKERELVAAITGGDSTYYADSVKGRFTISRDNAKNTVYLQMNSLKPEDTAVYYCNADRFRGRTVDGDYWGQGTQVTVSS	low polyreactivity
QVQLVESGGGLVQAGGSLRLSCAASGSIIGYYAMGWYRQAPGKDRELVAAISWSDGSTYYAVSVKGRFTISRDNAKNTVFLQMNSLKPEVTAVYYCAARFTPYITSDDGHYDYWGQGTQVTVSA	low polyreactivity
QVQLVESGGGLVQAGGSLRLSCAASGSIIGYYAMGWYRQAPGKERELVAAITASGGSTYYADSVKGRFTISRDNAKNTVYLQMNSLKPEDTAVYHCAADRIGGPGSYLYDYWGQGTQVTVSS	low polyreactivity
QVQLVESGGGLVQAGGSLRLSCAASGSIIGYYAMGWYRQAPGKERELVAAITASGGSTYYADSVKGRFTISRDNAKNTVYLQMNSLKPEDTAVYYCAAGTHTDYGRYYYWGQGTQVTVSS	low polyreactivity
QVQLVESGGGLVQAGGSLRLSCAASGSIILVYAMGWYRQAPGKERELVAGINSSGTSTYADSVKGRFTISRDNAKNTVYLQMNSLKPEDTAVYYCATPGIYYEMDYWGQGTQVTVSS	low polyreactivity
QVQLVESGGGLVQAGGSLRLSCAASGSIIPYYVMGWYRQAPGKERELVAAITSGGSTYYADSVKGRFTISRDNAKNTVYLQMNSLKPEDTAVYYCAVRWYPLYAPYWRDYWGQGTQVTVSS	high polyreactivity
QVQLVESGGGLVQAGGSLRLSCAASGSIIRQNAMGWYRQAPGKERELVAAISFSGTSTYYADSVKGRFTISRDNAKNTVYLQMNSLKPEDTAVYYCAVDNISYWAVENDYWGQGTQVTVSS	low polyreactivity
QVQLVESGGGLVQAGGSLRLSCAASGSIIRRYAMGWYRPAPGKERELVAAISSGGSTYYADSVKGRFTISRDNAKNTVYLQMNSLKPEDTAVYYCAALYYQITTTHYLHLHYDYWGEGTQVTVSS	low polyreactivity
QVQLVESGGGLVQAGGSLRLSCAASGSIIRWNAMGWYRQAPGKERELVAAISYSGGSTYYADSVKGRFTISRDNAKNTVYLQMNSLKPEDTAVYYCAKEYIVGFYLVFNRFDYWGQGTQVTVSS	low polyreactivity
QVQLVESGGGLVQAGGSLRLSCAASGSIIRWYTMAWYRQAPGKESEFVAAITRSGGSTYYADSVKVRFTISRDNAKNTVYLQMNSLKPEDTAVYYCARYANYDKRYDYWGQGTQVTVSS	high polyreactivity
QVQLVESGGGLVQAGGSLRLSCAASGSIISSYAMGWYRKAPGKETELLAVITRSGGSTYYADSVKGRFTISRDNAKNTVYLQMKSLKPVDTAVYYCNAQPTRIKLPSYDYWGQGTQVTVST	high polyreactivity
QVQLVESGGGLVQAGGSLRLSCAASGSIISSYAMGWYRQAPGKEREFVAAISSSGDSTYADSVKGRFTISRDNAKNTVYVQMNSLKPEDTAVFYCAVGGAGSDDYWGQGSQVTVSS	low polyreactivity
QVQLVESGGGLVQAGGSLRLSCAASGSIISYNTMGWYRQAPGKEREFVASIRRRGGSTYYADSVKGRFTISRDNAKNTVYLQMNSLKPEDTAGYYCAKANPHYVISDGVYHPRGGYWGHGTQVTVSS	low polyreactivity
